± gives the standard deviation of the averaged measurements.
System: ATP
Test: switch fluorescence ratio, 500 uM ATP over buffer (Cy3 cluster intensity, sum of 5 cycles each) (fold (ratio)); higher = stronger signal-on switching upon ATP binding; sequences stand for … in TCGTCGGCAGCGTCAGATGTGTATAAGAGACAGTTTTTTTTTTTTTTTTTTTTTTTTT…TC
Conditions: aptamer strand: ATP DNA aptamer (quencher-CACCTGGGGGAGTATTGCGGAGGAAGG + anchor), 100 nM annealed; ATP concentration: 500 uM
Method in brief: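 Per cluster, summed Cy3 intensity from the target cycles was divided by that from the buffer cycles to give the fluorescence ratio, then averaged per switch-domain sequence. Clusters outside 100-1000 RFU were excluded. The Cy3-labelled switching-strand clusters, on a modified Illumina MiSeq flow-cell, were annealed to 100 nM quencher-labelled ATP aptamer and imaged in selection buffer, then after 15 min with 500 uM ATP at 22 °C, for five cycles with NaOH stripping and re-annealing between them.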
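Also: ATP exposure 15 min at 22 °C before imaging.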

For AGAGGTGACA, the switch fluorescence ratio was 0.999 ± 0.061.
For AGAGGTTGCA, the switch fluorescence ratio was 0.994 ± 0.032.
With AGAGGTTGCG the switch fluorescence ratio was 0.955 ± 0.073.
For AGAGTACGGC, the switch fluorescence ratio was 1.09 ± 0.017.
With AGAGTAGGGT the switch fluorescence ratio was 1 ± 0.0043.
Sequence AGAGTATTAG has a switch fluorescence ratio of 1 ± 0.013.
With AGAGTCAACT the switch fluorescence ratio was 1 ± 0.042.
With AGAGTCATGT the switch fluorescence ratio was 1.01 ± 0.029.
AGAGTCATTA showed a switch fluorescence ratio of 0.995 ± 0.012.
Sequence AGAGTCGATT has a switch fluorescence ratio of 1.014 ± 0.0028.
AGAGTGGCAG gave a switch fluorescence ratio of 1.01 ± 0.021.
Work on AGAGTGGGGG yielded a switch fluorescence ratio of 0.971 ± 0.065.
With AGAGTGTTTT the switch fluorescence ratio was 1 ± 0.028.
Sequence AGAGTTTGGG has a switch fluorescence ratio of 0.988 ± 0.0099.
AGATAAAACG was tested, and the switch fluorescence ratio was 1.02 ± 0.076.
With AGATAATCGC the switch fluorescence ratio was 0.987 ± 0.03.
With AGATAGGAG the switch fluorescence ratio was 0.989 ± 0.027.
Work on AGATATTCGG yielded a switch fluorescence ratio of 0.984 ± 0.07.
Sequence AGATATTTCG has a switch fluorescence ratio of 1.02 ± 0.028.
AGATCGGATA showed a switch fluorescence ratio of 1.01 ± 0.024.
AGATCTACAT gave a switch fluorescence ratio of 1.01 ± 0.016.
AGATGACTGA was tested, and the switch fluorescence ratio was 0.997 ± 0.048.
Sequence AGATGAGGTG has a switch fluorescence ratio of 1.01 ± 0.019.
Work on AGATGCCGGA yielded a switch fluorescence ratio of 1 ± 0.027.
AGATGGGGCG was tested, and the switch fluorescence ratio was 0.955 ± 0.088.
AGATGGTACT was tested, and the switch fluorescence ratio was 0.9668 ± 4.6e-05.
AGATGGTCTG showed a switch fluorescence ratio of 1.01 ± 0.032.
Work on AGATGGTGGG yielded a switch fluorescence ratio of 1 ± 0.025.
For AGATGTCAGC, the switch fluorescence ratio was 0.9708 ± 0.0063.
In the case of AGATGTCGTT, the switch fluorescence ratio is reported as 0.997 ± 0.039.
Sequence AGATTCGTCA has a switch fluorescence ratio of 0.988 ± 0.018.
With AGATTGGATA the switch fluorescence ratio was 1.01 ± 0.036.
Sequence AGATTGGGCT has a switch fluorescence ratio of 0.997 ± 0.03.
AGATTTAAAG showed a switch fluorescence ratio of 0.98 ± 0.034.
Sequence AGATTTAAGT has a switch fluorescence ratio of 0.985 ± 0.022.
In the case of AGATTTGAGC, the switch fluorescence ratio is reported as 0.972 ± 0.035.
For AGATTTGTCG, the switch fluorescence ratio was 0.993 ± 0.068.
Work on AGATTTTAGG yielded a switch fluorescence ratio of 0.988 ± 0.012.
AGCAAAAAGG was tested, and the switch fluorescence ratio was 0.997 ± 0.054.
Work on AGCAAACTTA yielded a switch fluorescence ratio of 1.14 ± 0.043.
AGCAAATTCG was tested, and the switch fluorescence ratio was 1.04 ± 0.016.
In the case of AGCAAGGGCG, the switch fluorescence ratio is reported as 1.06 ± 0.074.
For AGCAATCGGT, the switch fluorescence ratio was 1.6 ± 0.42.
For AGCAATTTCG, the switch fluorescence ratio was 1.42 ± 0.081.
AGCACCGGGT gave a switch fluorescence ratio of 1.02 ± 0.018.
Work on AGCACGAAGG yielded a switch fluorescence ratio of 0.992 ± 0.04.
AGCACTCTAT showed a switch fluorescence ratio of 1.04 ± 0.024.
AGCACTTTAT gave a switch fluorescence ratio of 1.05 ± 0.073.
Work on AGCAGACTGG yielded a switch fluorescence ratio of 0.988 ± 0.0033.
For AGCAGAGGGA, the switch fluorescence ratio was 1.01 ± 0.011.

Source: the supplement of paper PMC10126150
